Data: publication doi:10.1101/2024.12.16.628704
Blank lines part the entries; values can stand above or below the substance they belong to.

How the values were obtained:
[1] = target: sialylated IgG1 V11 (G237D, P238D, H268D, P271G, A330R) Fc (human); assay: SPR
[2] = target: sialylated IgG1 GA (G236A) Fc (human); assay: SPR

fold change in affinity against WT sFc [1]: 37 fold
Substance: FcγRIIB (CD32b), as used in SPR with Fc proteins (from UniProt P31994 43-310) (receptor)

fold change in affinity against WT sFc [2]: 10 fold
Substance: FcγRIIA (CD32a), variant not named in the sentence (from UniProt P12318 34-317) (receptor)

fold weaker affinity against WT sFc [1]: 193 fold
Substance: FcγRIA (CD64) (from UniProt P12314 16-374) (receptor)
